The series deals with the molecule itself. Put plainly: cross-linking; purified protein cross-linked with 0.03% glutaraldehyde, analysed by SDS-PAGE.

B1: full-length PARN, recombinant (enzyme, human, UniProt O95453 1-639, looked up)
chain: MEIIRSNFKSNLHKVYQAIEEADFFAIDGEFSGISDGPSVSALTNGFDTPEERYQKLKKHSMDFLLFQFGLCTFKYDYTDSKYITKSFNFYVFPKPFNRSSPDVKFVCQSSSIDFLASQGFDFNKVFRNGIPYLNQEEERQLREQYDEKRSQANGAGALSYVSPNTSKCPVTIPEDQKKFIDQVVEKIEDLLQSEENKNLDLEPCTGFQRKLIYQTLSWKYPKGIHVETLETEKKERYIVISKVDEEERKRREQQKHAKEQEELNDAVGFSRVIHAIANSGKLVIGHNMLLDVMHTVHQFYCPLPADLSEFKEMTTCVFPRLLDTKLMASTQPFKDIINNTSLAELEKRLKETPFNPPKVESAEGFPSYDTASEQLHEAGYDAYITGLCFISMANYLGSFLSPPKIHVSARSKLIEPFFNKLFLMRVMDIPYLNLEGPDLQPKRDHVLHVTFPKEWKTSDLYQLFSAFGNIQISWIDDTSAFVSLSQPEQVKIAVNTSKYAESYRIQTYAEYMGRKQEEKQIKRKWTEDSWKEADSKRLNPQCIPYTLQNHYYRNNSFTAPSTVGKRNLSPSQEEAGLEDGVSGEISDTELEQTDSCAEPLSEGRKKAKKLKRMKKELSPAGSISKNSPATLFEVPDTW
notes: poly(A)-specific ribonuclease (PARN), human, full length; cloned in pET-28a
As for B1, the binding result is on record as “binds”.
